Test results from the DeepSol protein solubility set.

Assay: soluble on expression in E. coli; label from the status in PepcDB or PDB records

| Sequence | soluble on expression in E. coli |
| --- | --- |
| NKNFWLGVRGNFTYATGKYEYVEEPYRPYPWLSHIGKRIEQSYGLVAERLFIDEEDIANSPVQTYGEYMPGDIKYKDINNDGIINDEDIVPIGFAKSPEIVYGFGVSMGYKNFDISCFFQGAARSSFFINSKATNPFMQMDLGGNNLNGMMQAYADDYWSESNRNIYATFPRLSTTDIANNNRNSTWWLRDGSYLRLKSVEIGYTLPKRLTSHLGMSNLRIYASGLNLFAWNRFKLWDVEQGNDGMQYPIQAVYNFGINLSF | not soluble |
| NLREDGEKAAREVKLLLLGAGESGKSTFLKQMRIIHGQDFDQRAREEFRPTIYSNVIKGMRVLVDAREKLHIPWGDNKNQLHGDKLMAFDTRAPMAAQGMVETRVFLQYLPAIRALWEDSGIQNAYDRRREFQLGESVKYFLDNLDKLGVPDYIPSQQDILLARRPTKGIHETHFTFKDLHFKMFDVGGQRSERKKWFECFEGVTAIIFCVALSDYDQVLMEDRQTNRMHESMKLFDSICNNKWFTDTSIILFLNKKDLFEEKIKKSPLTICYPEYAGSNTYEEAAAYIQCQFEDLNKRKDTKEIYTHFTCATDTKNVQFVFDAVTDVIIKNNLKDCGLF | soluble |
| NNDITAENNNIYKAAKDVTTSLSKVLKNIN | soluble |
| NPVSKRSRGKGMLGGAKRAARTHRASGTAVEELVFPYEHPVPQVGTLTSVELTIPLMRDGVVVEGLPTLEESRAYLAQQLVTIPWEGLALSRDEPVLATRHVGFDQ | not soluble |
| NQIYLPMVDFRPFKVGKSLRELTQAPAGAPEDVYEYVFVYEKNGKRQEFDMDHLPDDSWTYVDRHEKLIKKGYTPPVTDFLLLRGGEDVTSEIVNKKGITLLLLSPDWENASDDKMDNISEMYDYAQEHAWDFYGVSASTSDDISTWRYNTGADYPMLFLDAVTVKTITRGNPSLVILRDGVIRGKVSDANFPGVGQAQAFFDRYIGNELYQPS | not soluble |
| NQLLGMHQIEKEMTQYFGIQRCIVVAGDSDIQKKVLSDFGDVLTNTLNLLLPNGENTIAVMGGTTMAMVAENMGSLETEKRHNLFVPARGGIGEAVSVQANSISAVMANKTGGNYRALYVPEQLSRETYNSLLQEPSIQEVLTLISHANCVVHSIGRALHMAARRKMSDDEMVMLKQKNAVAESFGYFFDEEGKVVYKIPRIGLQLKNLQEIPYVVAIAGGKTKAKAIRAYMKNAPKQTWLITDEAAANEILKGVTL | not soluble |
| NRRIVARLIGLGDSIDAIIKNDLSHPIVVDGNDEIGRLSEKLIEYGEKVQEIQRTNALSLINNTTASLITSDLNGVVESANLSARKLLKLGEVNESYPIWEYFPESCREQLKKVFDGSHLWIELGKIHVTLSLGDEKPKYVRFDIRPFAHGAEYKLIMTITDVTHQEMTTRTLESRVLEKTQDLLLKNQQLENEIEERIRTEDNLKKTQDELIQAAKMAVVGQTMTSLAHELNQPLNAMSTYLYSARMFLEQESPEKVGESITHIEGLATRMSKIINSLRQFARKPEGEREVKFVSVHEVAEQASTIVNTRAKRQQIIIENQLPDDVKVQGDMLALEQVFINVLVNSCDALMESTRDEQKRIQMALVERTSQTTLIAISDNGIGFGEEIVQRIFQPFVSTKEVGLGLGMNICKSLIEKHKGSIYLASSLEKGAMVVLELPNEQ | not soluble |
| NRYQDLEKQVITTGNSIIEPLAIASESHLLAESREAVRRLISYAHRKNSKLVRSIAVFDEHHELFVTSNFHPNFEALMFPKDKPIPKLGNSEIYENSLILRVPILSEGHYLSELSNENQGTKAIGYIAVEMDLSSLRLQQYQE | not soluble |
| NTMRSFILRARSAPTDSQRLLDEIGGKCHTEILAHCMMNSLFTAQSHREDVVIHLVLESTRDYSRTITVEANEISDVGGFHEAALIALLVKALDASVGMGKEQTRVVQPGLTVRTISFEALLGELAEHHSLYMMDKKGDSIRDIKIGPNPCFILTDHIPMPKKSGNSMKRLGVEKISLGPKMLFASQCVTLIHNEIDHQEA | not soluble |
| NYAPAVAEAFYRGIPLVAVTADRPAEWIDQDEGQTIRQEGAMAGFVKSYCSLRAEFDTSASAWYANRRLNEVLNHALMPRRGPVHINMSFCEPLYGTSSGYSGKERAITFVRERQELPEEVWDMLVKRFLEAPRVMIVAGFYPPDEDVSAALQDICKFPHTVLFAESLSNIRTDTGICTADRVLAAAGEDESLYPELLISFGGSLISRMLKTFLRRAKPAEHWGIDERFPAPDTFCALTHHICTGASGFWKEFAGRLKDKAPESLSPEGISYAGSWQKIKRKADLLHRTFMADAGWSDLKAFEVILRHIPHDAALHAANSTPVRYLQLFEHAHYAGGEWSNRGTNGIEGATSTAMGFSE | not soluble |
| NYYERHIGDYARDTGYLSVLEHGIYCLLLDRYYATEQPIPANKAHRIARAHSKKEKSAVDVVLDEFFLLQ | not soluble |
| PATDWLSAETFESDLDETRVPEVPSSLHVRPLVTSIVVSWTPPENQNIVVRGYAIGYGIGSPHAQTIKVDYKQRYYTIENLDPSSHYVITLKAFNNVGEGIPLYESAVTRPHT | soluble |
| PDGPTQLRALNLTEGFAVLHWKPPQNPVDTYDIQVTAPGAPPLQAETPGSAVDYPLHDLVLHTNYTATVRGLRGPNLTSPASITFTTGLEAPRDLEAKEVTP | soluble |
| PDIHHPSDFSIQKLSKDEDNYVAWKIRFRSFLRVTKKFGFIDGTLPKPDPFSPLYQPWEQCNAMVMYWLMNSMTDKLLESVMYAETAHKMWEDLRRVFVPCVDLKIYQLRRRLATLRQGGDSVEEYFGKLSKVWMELSEYAPIPECKCGGCNCECTKRAEEAREKEQRYEFLMGLKLNQGFEAVTTKIMFQKPPPSLHEAFAMVKDAESMMKWYSR | not soluble |
| PDVKCVCCTEGKECACFGQDCCVTGECCKDGTCCGI | soluble |
| PEQDIVYISASSGSTGVPTASPFTQSDFDGWIDYEARQFWSSGMRPSDRYVHSLNFSLFIGGPCVLGAQKLGALTIHAGTIPSDRLLQILRQFQATVIWTTPSYAWYLGETAIKEGYDLRKDLAVRRIFVAGEPGGSIPETRNRIEQLWGASVYDYYGLSDIFGSCAGMCEQKE | not soluble |
| PESPLRSGRREIANILGVAAQVQRQVAEALRNNNTDGIVDALVRARGTQGQINQMIAAANMGKETIQASPLLWAQRQRIRSMMRILNPVDNAMRNTRVLARRALVLCEDNDEVSGRQIQIIEQLAEVSEDLSNLYYGNSKLSENAEIPRLVNNLKMIGSRTGLEVSEGKVLSAQVVLAQSRSLVVDLLQICGQSRRSAVEILSPTSMHPASVKEIWNDDV | not soluble |
| PFEPLITAVIETSLNTLIKDDPALGRRLARLKGQVIQVHLKEIDKTLTFVFSQQIDVLGNYEGQPDCYLSLNLSVLPELRDQANITRLIKQDKLELEGDIQLAQKFSQLMTDCKPDIEEWLSRVTGDVVAHTLVQGTKNVGGFFVSQAEKHQRHLAQVVTEEWKLAPAPLEVAYFCDQVDEVRSQASRVEARLNALLSKVGSDKPA | not soluble |
| PFWSCLHNQLWNYREADQNRINRNQLPLYGVEGRFERMNQHPNAGSHSFSIGVTEVLNSNLLIELRADDIEYVYQRSPGKIISVIIPTFEALTQFGVATITTQNTGEVEASYSLTFDCSTGVTLMEEQYFIIKPKETSIRSFKIYPTTNQAAKYTCSAILKDSDFSEVDRAECQFSTMATVLDNGSQITPFQPPKSSINDFFESIESIGKKLWEGLRDFITGKACRRKCSSFFDFSCHIQYIC | not soluble |
| PIEGEKVDLRIMSTTDLHTNLVNYDYYQDKESQKIGLAKTAVLIEEAKKENPNTVLVDNGDVIQGTPLGTYKAIVKPVAENEEHPMYQAMNALGYDASTLGNHEFNYGLDYLKKIIATANLPILNANVLDFKTHQPVFKTYDIITKTFKDSTGRAVALNIGITGIVPPQILNWDKANLEGKVIVKDSVKAIEEIVPTMRAKGADVILVLSHSGIGDDRYEEGEENVGYQIASIKGVDAVVTGHSHAEFPSGNGTGFYEKYTGVDGINGKINGTPVTMAGKYGDHLGIIDLGLSYTNGKWQVSESSAKIRKIDMNSTTADERIIALAKEAHDGTINYVRQ | not soluble |
| PKLVCLVSSSNSFATFLAEEIPIISNKGIGVKGIKLKAEEKVRFAMPLQD | not soluble |
| PKPLVILAHEIYGVNSHMKKMGRLIKMAGYDVLTPNLLGEDEVYTLKEEKTAYEQFTKHERLKTGETIIQPVIRQNAGRHIFVIGFSVGATIAWKCSSMPEVSGSVCYYGSRIRDSLHHMPACPVLLFFPNYEPSFDVALLIKKLREKQHTHLEIYQFDALHASP | not soluble |
| PRKRFIYLERKISPAMASYIKELKIPGIHLRKESKRFYPTGEISAHLIGFTNVDDKGIEGIERMYDDLLTGTGGAKRFRKDAKGRKIEIISVEEPEQAQDITLSID | not soluble |
| PRNSKNDGVDTAIYHHKLRDQVLKALYDVLAKESEHPPQSILHTAKAIESEMNKVNNCDTNEAAYKARYRIIYSNVISKNNPDLKHKIANGDITPEFLATCDAKDLAPAPLKQKIEEIAKQNLYNAQGATIERSVTDRFTCGKCKEKKVSYYQLQTRSADEPLTTFCTCEACGNRWKFS | soluble |
| PSDTVTLFMSGDGGWRDLDKVVAGDMAKMGYPVVGIDVLRYYWEHKTPEQTAADLTDLMNHYRQKWGTKRFILAGYSFGADVMPAIYNRLAADDQNRVDAIILLAFAR | not soluble |
| PSQDPRTPGGSEWRETGPQFRCLPPVPADMVFLVDGSWSIGHSHFQQVKDFLASVIAPFEIGPDKVQVGLTQYSGDAQTEWDLNSLSTKEQVLAAVRRLRYKGGNTFTGLALTHVLGQNLQPAAGLRPEAAKVVILVTDGKSQDDVHTAARVLKDLGVNVFAVGVKNADEAELRLLASPPRDITVHSVLDFLQLGALAGLLSRLICQRLQGGSPRQGPAAAPALDTLPAPTSLVLSQVTSSSIRLSWTPAPRHPLKYLIVWRASRGGTPREVVVEGPAASTELHNLASRTEYLVSVFPIYEGGVGEGLRGLVTTAPLPPPRALTLAAVTPRTVHLTWQPSAGATHYLVRCSPASPKGEEEEREVQVGRPEVLLDGLEPGRDYEVSVQSLRGPEGSEARGIRARTPTLAPPRHLGFSDVSHDAARVFWEGAPRPVRLVRVTYVSSEGGHSGQTEAPGNATSAMLGPLSSSTTYTVRVTCLYPGGGSSTLTGRVTTKKAPSPSQLSMTELPGDAVQLAWVAAAPSGVLVYQITWTPLGEGKAHEISVPGNLGTAVLPGLGRHTEYDVTILAYYRDGARSDPVSLRYTPSTVSRSPPSNLALASETPDSLQVSWTPPLGRVLHYWLTYAPASGLGPEKSVSVPGARSHVTLPDLQAATKYRVLVSAIYAAGRSEAVSATGQTACPALRPDGSLPGFDLMVAFSLVEKAYASIRGVAMEPSAFGGTPTFTLFKDAQLTRRVSDVYPAPLPPEHTIVFLVRLLPETPREAFALWQMTAEDFQPLLGVLLDGDVGPASPPAVRRSRGREAPEPWEAFRGSPASRPGPQHPLGGRQVSRAGGCGPH | soluble |
| PVNQKSKRSELSQRRIRRPFSVAEVEALVEAVEHLGTGRWRDVKMRAFDNADHRTYVDLKDKWKTLVHTASIAPQQRRGEPVPQDLLDRVLAAHAYWSQQQGKQHVEPLKILDAKAQKVGA | soluble |
| PVSGTPSGITELDNVTTGGQPGELIIIAARPAMGKTTFAQLVAQSTLNKYPDASIQFYSQEMPADQLVQRFMSMRSRISLQSIRQATELTELAWSKIAEAMGYIMNNWKDRLLIDDEPSLPPYRLRTKVRRNTRLYGKPKAIIIDYIQLMRSTGKFENRNLELAEISSELKKLAKETGCPVYALSQLNRSLEQRANKRPVNSDL | not soluble |
